# In paper PMC12714832:
# Target: proton-dissociation-permeated sodium channel (PDPNaC1) (Scolopendra subspinipes mutilans)
# Assay: cryo-EM structure; purified PDPNaC1 in LMNG/CHS, pH 8.0, 4.0 mg/mL; 121,831 particles, C3 symmetry, 3.03 Å; closed (non-conductive) state
substance,measurement,value
proton-dissociation-permeated sodium channel (PDPNaC1) (natural protein),stoichiometry N,3
